The target in assay [1] is T1, seleno-methionine labeled SRP72-PBD (L31M/L65M) (human, UniProt O76094 8-166, L31M | L65M, seleno-methionine labeled).
T1 sequence (looked up): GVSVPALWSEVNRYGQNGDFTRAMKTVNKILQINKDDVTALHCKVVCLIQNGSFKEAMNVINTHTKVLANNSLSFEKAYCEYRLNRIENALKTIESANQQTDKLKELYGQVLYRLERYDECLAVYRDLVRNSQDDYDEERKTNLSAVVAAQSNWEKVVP
The experiment in a line: crystal structure.

In assay [2] the target is T2, human SRP72 protein-binding domain (SRP72-PBD, 8-166) (human, UniProt O76094 8-166).
T2 sequence (looked up): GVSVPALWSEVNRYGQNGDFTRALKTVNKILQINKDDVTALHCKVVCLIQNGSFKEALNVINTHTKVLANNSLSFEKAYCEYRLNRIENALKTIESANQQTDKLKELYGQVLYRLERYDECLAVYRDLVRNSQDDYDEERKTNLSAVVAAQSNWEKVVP
The experiment in a line: ITC. (Isothermal titration calorimetry measures the heat released or taken up as one component is titrated into another.)

B1: untagged human SRP68 protein-binding domain (SRP68-PBD, 546-614) (domain or fragment, UniProt Q9UHB9 546-614, looked up)
chain: SQVKDNKPLVERFETFCLDPSLVTKQANLVHFPPGFQPIPCKPLFFDLALNHVAFPPLEDKLEQKTKSG
Turning to B1, the binding result in assay [1] is “binds”.

B2: His6-SRP68-PBD (human SRP68 546-614 from pETtrx1a) (domain or fragment, UniProt Q9UHB9 546-614, looked up)
chain: SQVKDNKPLVERFETFCLDPSLVTKQANLVHFPPGFQPIPCKPLFFDLALNHVAFPPLEDKLEQKTKSG
As a reminder, the Kd is the free concentration of one partner at which half of the binding sites on the other are occupied at equilibrium, for simple one-to-one binding. In assay [2], B2 returned a Kd of 33 ± 11 nM and a dH of -15.7 ± 0.5 kcal/mol.

Source of the values: publication PMC5224484 (Nucleic Acids Research, 2016).
